From patent US20250340659A1 (PETMEDIX, published 2025)

T1: canine OX40L, full length membrane form, expressed on HEK293 cells (canine)
T1 construct: also called OX40L expressing HEK; HEK OX40L cells
T1 chain: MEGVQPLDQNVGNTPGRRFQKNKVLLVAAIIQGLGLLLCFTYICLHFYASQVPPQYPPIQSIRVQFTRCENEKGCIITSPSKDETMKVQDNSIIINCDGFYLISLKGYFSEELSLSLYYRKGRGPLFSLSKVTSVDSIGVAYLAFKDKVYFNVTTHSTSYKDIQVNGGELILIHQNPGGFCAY


Key:
[1] = molecular target: T1, canine OX40L, full length membrane …; assay: flow cytometry
Protocol: (§1) CHO supernatants diluted in FACS buffer (PBS containing 3% FBS) at 1, 5 or 10 μg/ml were used to screen for their binding capacity to canine OX40L using a cell-based assay. In brief, HEK293 or MEF cells (or any other commonly used cell lines) expressing canine OX40L at the cell surface are incubated with 100 μll of FACS buffer containing the candidate antibody for 30′ on ice. Cells are washed with 150 μl FACS buffer followed by centrifugation at 300 g for 3 min. The cell pellet is resuspended in FACS buffer containing a 1:1000 dilution of a fluorescently labelled secondary antibody recognising the canine Fc region of the test antibody for 30 min in the dark, followed by washing with 150 μl FACS buffer. Cells are resuspended in FACS buffer and flow cytometry performed using either a […] cytometer, followed by data analysis using FlowJo (FIG. 6 and Table 4).

[2] = molecular target: T1, canine OX40L, full length membrane …; assay: cell-based or functional assay
[3] = molecular target: T1, canine OX40L, full length membrane …; assay: flow cytometry, OX40L HEK minus WT HEK
Protocol: as §1

| GEO mean OX40L expressing HEK [1] | % Signal Inhibition Average [2] [%] | % Signal Inhibition Rep1 [2] [%] | % Signal Inhibition Rep2 [2] [%] | % Signal Inhibition Rep3 [2] [%] | GEO mean difference [3] | Binder |
| --- | --- | --- | --- | --- | --- | --- |
| 544000 | 72.3 | 72.8 | 71.9 | 72.1 | 531000 | PMX082 (antibody, V domains shown, also called PMX82) VH: EVQLVESGGDLVKPGGSLRLSCVASGFTFSSHHMTWVRQAPGKGLQWVAYIVSGGTNTNYADAVKGRFTISRDNAKNTLYLQMNSLRAEDTAVYYCASDLVLAVGAPFYWGQGTLVTVSS VL: SYELTQPPSVNVTLRETAHITCGGDSIGRKYVQWIQQNPGQAPVVIIYKDINRPTGIPERFSGANSGNTATLTISGALAEDEADYYCQVGDSGTKAVFGEGTQLTVL |
| 701000 | 71.1 | 66 | 65.8 | 81.6 | 690000 | PMX083 (antibody, V domains shown, also called PMX83) VH: EVQLVESGGDLVKPGGSLRLSCVASGFTFRTYHMSWVRQAPGKGLQWVAYITRDGISTTYTDAVKGRFTISRDNAKNTLFLQMNSLRADDTAVYYCASDLVLVLGAPFYWGQGTLVTVSS VL: SYELTQPPSVNVTLGETAHITCGGDSIGRKYVQWIQQNPGQAPVVIIYKDSNRPTGIPERFSGANSGNTATLTISGALAEDEADYYCQVGDSGTKAVFGEGTQLTVL |
| 2.81e+06 | 15 | 4.15 | 22.1 | 18.7 | 2.78e+06 | PMX062 (antibody, also called PMX62) heavy: EVQLVESGGDLVKPEGSLRLSCVVSGFTFSSYDMSWVRQAPGKGLQWVAYISFDGRSTSYTDVVKGRFTISRDNAKTTLYLQMNTLRIEDTAVYYCAKLSSSGWSMDYWGHGTSLFVSSASTTAPSVFPLAPSCGSTSGSTVALACLVSGYFPEPVTVSWNSGSLTSGVHTFPSVLQSSGLYSLSSMVTVPSSRWPSETFTCNVAHPASKTKVDKPVPKRENGRVPRPPDCPKCPAPESLGGPSVFIFPPKPKDTLLIARTPEVTCVVVDLGREDPEVQISWFVDGKQMQTAKTQPREEQFNGTYRVVSVLPIGHQDWLKGKQFTCKVNHIGLPSPIERTISKARGQAHQPSVYVLPPSREELSKNTVSLTCLIKDFFPPDIDVEWQSNGQQEPESKYRTTPPQLDEDGSYFLYSKLSVDKSRWQRGDTFICAVMHEALHNHYTQKSLSHSPGK VL: SYVLTQLPSKNVTLKQPAHITCGGDNIGSKSVHWYQQKLGQAPVLIIYYDSSRPTGIPERFSGANSGNTATLTISGALAEDEADYYCQVWDSSASVFGGGTHLTVL |
| – | 47.6 | 57.3 | 26.3 | 59.1 | – | PMX103 (antibody, V domains shown) VH: EVQLVESGGDLVRPGGSLRLSCVASGFTFSNLHMNWVRQAPGKGLQWVAFINSGGSGTTYADVVRGRFTISRDYAKNTLNLQMTSLRAEDTAVYYCATGSIWTHFDYWGQGTLVTVSS VL: SFVLTQLPSVSVTLRQTARITCGGDSIGSKSVYWYQQKLGQAPVLIIYRDSNRPTGIPERISGASSGNTATLTISGALAEDEADYYCQVWDSSNKAMFGGGTHLTVL |
| – | 47.4 | 43.3 | 49.7 | 49.1 | – | PMX089 (antibody, V domains shown) VH: EVQLVESGGDLVKPGGSLRLSCVASGFTFNNFHMSWVRQAPGKGLQWVAFINSDGGNRNYADVVKGRVTISRDYAKNTLYLQINSLRAEDTAVYYCAGGSIWTHFDYWGQGTLVTVSS VL: SYVLTQLPSMSVTLRQTARITCEGDIIASKRIYWYQQKLGQVPVLLIYADSSRPSGIPERFSGASSGNTATLTISGALAEDEADYYCQVWDNNANSVFGGGTHLTVL |
| – | 34.7 | 33.3 | 39.2 | 31.6 | – | PMX092 (antibody, V domains shown) VH: EVQLVESGGDLVKPGGSLRLSCVASGFTFNNLHMSWVRQAPGKGLQWVAFINSDGRNRNYADAVKGRVTISRDYAKNTLYLQINSLRAEDTAVYYCTGGSIWTHFDYWGQGTLVTVSS VL: SYVLTQLPSMSVTLRQTARITCEGDIIASKRVYWYQQKLGQVPVLFIYADNSRPSGIPERFSGASSGNTATLTISGALAEDEADYYCQVWDSNANSVFGGGTHLTVL |

Second part, the binder before the results:

| Binder | GEO mean OX40L expressing HEK [1] | % Signal Inhibition Average [2] [%] | % Signal Inhibition Rep1 [2] [%] | % Signal Inhibition Rep2 [2] [%] | % Signal Inhibition Rep3 [2] [%] | GEO mean difference [3] |
| --- | --- | --- | --- | --- | --- | --- |
| PMX084 (antibody, V domains shown, also called PMX84) VH: EVQLVESGGDLVKPEGSLRLSCVVSGFTFSNYDMSWVRQAPGKGLQWVAFISNDGRITGYTDAVEGRFTISRDNAKNTLYLQMNSLRTEDTAVYYCAKETSRWGFDYWGQGTLVTVSS VL: SYVLTQLPSVSVTLRQTARITCGGDSIGSKNVYWHQQKLGQAPVLIIYDDSSRPSGIPERFSGANSGNTATLTISGALAEDEADYYCQVWDSSTSVFGGGTHLTVL | 622000 | 60.7 | 47.2 | 66.9 | 68 | 610000 |
| PMX094 (antibody, V domains shown) VH: DIHLVESGGDLVRPGGSLRLSCVASGFTFSNLHMNWVRQAPGKGLQWVAFINSGGSGTTYADVVRGRFTISRDYAKNTLYLQMNSLRADDTAVYYCASGSIWTHFDYWGQGTLVTVSS VL: SFVLTQLPSVSVTLRQTARITCGGDSIGSKSVYWYQQKLGQAPVLIIYRDSNRPTGIPERISGASSGNTATLTISGALAEDEADYYCQVWDSSNKAMFGGGTHLTVL | – | 45.4 | 38.6 | 55 | 42.7 | – |
| PMX099 (antibody, V domains shown) VH: EVQLVESGGDLVRPGGSLRLSCVASGFTFSSYHMNWVRQAPGKGLQWVAFINSGGSSTTYADVVRGRFTISRDYAKNTLYLQMNSLRAEDTAVYYCASGSIWTHFDYWGQGTLVTVSS VL: SFVLTQLPSVSVTLRQTARITCGGDSIGTKSVYWYQQKLGQAPVLIIYRDSNRPTGIPERFSGASSGNTATLTISGALAEDEADYYCQVWDSSNKAMFGGGTHLTVL | – | 24.8 | 25.1 | 32.7 | 16.4 | – |
| PMX100 (antibody, V domains shown) VH: EVQLVESGGDLVRPGGSLRLSCVASGFTFSSYHMSWVRQAPGKGLQWVAFINSGGSSTTYADVVRGRFTISRDYAKNTLYLQMNSLRAEDTAVYYCASGSIWTHFDYWGQGTLVTVSS VL: SFVLTQLPSVSVTLRQTARITCGGDSIGSKSVYWYQQRLGQAPVLIIYRDSNRPTGIPERFSGASSGNTATLTISGALAEDEADYYCQVWDNSNKAMFGGGTHLTVL | – | 32.4 | 49.1 | 28.1 | 19.9 | – |
| PMX101 (antibody, V domains shown) VH: EVQLVESGGDLVRPGGSLRLSCVASGFTFSNYHMSWVRQAPGKGLQWVAFINSGGSSTSYADAVRGRFTISRDYAKNTLYLQMNSLRAEDTAVYYCASGSIWTHFDYWGQGTLVTVSS VL: SFVLTQLPSVSVTLRQTARITCGGDIIGSKSVYWFQQKLGQAPILIIYRDDNRPTGIPERFSGASSGNTATLIISGALAEDEAHYYCQVWDSSSKAMFGGGTHLTVL | – | 52.4 | 62.6 | 50.3 | 44.4 | – |
| PMX095 (antibody, V domains shown) VH: AVQLVESGGDLVRPGGSLRLSCVASGFTFSSYHMNWVRQAPGKGLQWVAFINSGGSSTTYADVVRGRFTISRDYAKNTLFLQMNSLRAEDTAVYYCAIGSIWTHFDYWGQGTLVTVSS VL: SFVLTQLPSVSVTLRQTARITCGGDIIGSKNVYWYQQRLGQAPVLILYRDTNRPTGIPERFSGASSGNTATLTISGALAEDEADYYCQVWDNSNKAMFGGGTHLTVL | – | 50.3 | 40.9 | 52.6 | 57.3 | – |
| PMX096 (antibody, V domains shown) VH: EVQLVESGGDLVKPGGSLRLSCVASGFTFNTYHMNWVRQAPGKGLHWVAFINSGGSDTSYADTVQGRFTISRDYAKNTLYLQMNSLRAEDTAVYYCASGYIWTHFDYWGQGTLVTVSS VL: SYVLTQLPSVSVTLRQTAHITCGGDIIGSKSVYWYQQKLGQAPVMIIYRDNNRPTGIPERFSGASSGNTATLTISGSLAEDEADYYCQVWDSRTQALFGGGTHLTVL | – | 50.1 | 36.8 | 59.1 | 54.4 | – |
| PMX093 (antibody, V domains shown) VH: EVQLVESGGDLVKPGGSLRLSCVASGFTFSSYHMSWVRQAPGKGLQWVAFINSGGGGTNYADAVKGRFTISRDYAKNTLYLQMNSLRAEDTAVYYCVGGSIWTHFDYWGQGTLVTVSS VL: SYVLTQLPSMSVTLRQTARITCEGDIIASKRVYWYQQKLGQVPVLLIYGDSSRPSGIPERFSGANSGNTATLTISGALAEDEADYYCQVWDSGTNSVFGGGTHLTVL | – | 5.46 | 0 | -0.585 | 17 | – |
